Measured values from US20250263490A1 (VIB VZW, published 2025).
Each block holds one binder with its values, some of them ahead of it.

Assays:
[1] = molecular target: T1, recombinant human domain 1-3His6 of the cation-independent mannose-6-phosphate receptor (human, UniProt P11717 41-467); assay: BLI exp 2, dissoc pH not printed (between 6 and 5, presumably 5.5)
T1 construct: Biotinylated (NHS-PEG4-biotin) for BLI; Glycosylated; also called hDom1-3His6; hCI-M6PRD1-D3
Protocol: (§1) For each of the 11 anti-CI-M6PR VHHs, a biolayer interferometry (BLI) experiment was performed in which the hDom₁₋₃His₆ was biotinylated and coupled to streptavidin biosensor tips. Afterwards, the tips were incubated with serially diluted VHHs during the association phase and dissociation was performed at pH 7.4. Similarly, dissociation was performed at pH 7.0, pH 6.0 and pH 5.0 as well after regeneration of the biosensor tips. […] The anti-CI-M6PR antibody (clone 2G11) and GBP were used as positive and negative controls, respectively.
Analysis of the binding kinetics was performed using an Octet Red96 (FortéBio) device with Streptavidin SA Biosensor tips (VWR, 733-2145). To this end, 1 mL of hCI-M6PR_D1-D3 (0.5 mg/mL in 50 mM MES, 150 mM NaCl, pH 6.5) was incubated at room temperature for 30 minutes with a two-fold molar excesses of EZ-Link™ NHS-PEG₄-Biotin (Thermo Fischer, A39259) and NaHCO₃ (100 mM, pH 8.3). Biotinylated hCIMPR_D1-D3 was purified using a Zeba spin desalting column (Thermo Fischer, 89890) and protein concentration was calculated by measuring the absorbance at 280 nm (extinction coefficient 50320 M¹ cm⁻¹). Two-fold biotin-labelled antigen was loaded on the tips (2.5 μg/mL) and subsequently dipped into a particular anti-CI-M6PR VHH-containing solution (ranging from 0-100 nM). […]

[2] = molecular target: T1, recombinant human domain 1-3His6 of the …; assay: BLI, dissoc pH 6.5, mean of local fits
Protocol: FIGS. 58 & 59. […] BLI was performed on an Octet Red96 (FortéBio) instrument in kinetics buffer (0.2 M Na₂HPO₄, 0.1 M Na⁺ citrate, 0.01% bovine serum albumin, 0.002% Tween-20). Biotinylated human domain₁₋₃His₆ was immobilized on Streptavidin SA biosensors (Sartorius) to a signal of 0.6 nm. […] Between assays, biosensors were regenerated by three times 10 s exposure to regeneration buffer (10 mM glycine pH 3). The degree of association and dissociation was measured in δ nm over time (s).
After loading, the tips were incubated with VHHs serially diluted in pH 7.4 kinetic buffer during the association phase and dissociation was performed at pH 7.4, pH 6.5, pH 6.0, pH 5.5 and pH 5.0. All biosensor tips were then regenerated before analysis of the subsequent VHH. Table 13 summarizes the kinetic parameters retrieved after processing and curve fitting of the BLI measurements. When both association and dissociation were performed at pH 7.4, a global fit was performed according to the 1:1 binding model of which the resulting affinity constants (KD), association (kₒₙ) and dissociation rate constants (koff) are shown. For measurements with association at pH 7.4 and dissociation at pH 6.5, 6.0, 5.5 and 5.0, the depicted dissociation rate constants are an average of the parameters determined by local curve fitting of the dissociation of 200, 100 and 50 nM VHH.

[3] = molecular target: T1, recombinant human domain 1-3His6 of the …; assay: BLI at pH 7.4, 1st of 2 repeats; BLI, biotinylated hDom1-3His6 on streptavidin tips, pH 7.4, experiment 1
Protocol: as §1
Analysis of the binding kinetics was performed using an Octet Red96 (FortéBio) device with Streptavidin SA Biosensor tips (VWR 733-2145). Therefore, 1 mL of human domain₁₋₃His₆ (0.5 mg/mL in 50 mM MES, 150 mM NaCl, pH 6.5) was incubated at room temperature for 30 minutes with EZ-Link™ NHS-PEG4-Biotin (1 mg) (Thermo Fischer A39259) and NaHCO₃ (100 mM). Biotinylated human domain₁₋₃His₆ was purified using a Zeba spin desalting Column™ (7K MWCO, 2 mL, Thermo Fischer 89890) and 1 μg/mL was used for immobilization on the Streptavidin SA Biosensor tips. The loaded tips were dipped into a particular anti-CI-M6PR VHH solution, serially diluted in kinetics buffer (0.2M NaH₂PO₄, 0.1M Na⁺ citrate, 0.01% BSA, 0.002% Tween20, pH 7.4). This was followed by dissociation of the particular anti-CI-M6PR VHH in kinetics buffer of pH 7.4, followed by regeneration in Glycine (10 mM, pH 3) and neutralisation. Same cycle was repeated but the dissociation was performed at pH 7.0, 6.0, 5.0, 4.5 and 4.0. A reference well and reference sensors were subtracted from ligand sensors afterwards and Savitsky-Golay filtering was applied on the data. Fitting of the data was performed using a 1:1 model, grouped per pH of dissociation.

koff [1]: 0.00062 s⁻¹
kon [1]: 2.1e+06 M⁻¹ s⁻¹
B1: anti-CI-M6PR VHH5 (VHH)
VHH: QVQLQESGGGLVQAGGSLKLSCAAAGRTFSRLAMGWFRQAPGKEREFVAAISENGDSIHYSDSVKGRFAVSRDNAKNTVYLQMNSLKPEDTAIYYCAADRAAYYCSGSGCYPSRAPAAASYDYWGQGTQVTVSS
notes: His6-tagged; made in Pichia pastoris, later also in E. coli WK6

koff [2]: 0.0048 s⁻¹
B2: anti-CI-M6PR VHH 1H11 (VHH)
VHH: QVQLQESGGGLVQPGGSLRLSCAASGIIFSDNRMDWYRQAPGKQREWVATLASYGWKTYADSVKDRFTISRDNAKNTVNLYMNSLQPEDTAVYYCNSGQYWGQGTQVTVSS
notes: made in E. coli WK6, His-tag purified

Kd [3]: 2.33 nM
koff [3]: 0.00133 s⁻¹
kon [3]: 571000 M⁻¹ s⁻¹
B3: anti-CI-M6PR VHH4 (VHH)
VHH: QVQLQESGGGLVQAGGSLRLSCAASGRTFSNYVMGWFRQAPGKEREFVGSISQGGKMTYYPDSVKGRFTISRDNAKNTMYLQMDGLKPEDTAVYYCAVSRGYPMVRVSEVDYWGQGTQVTVSS
notes: His6-tagged; made in Pichia pastoris
